Earlier results on one substance are cited in PMC3720600.

This data set concerns the target Cys145 (UniProt position 145, PILIPCHRVVC).

With “O6-methylguanine-DNA methyltransferase (MGMT; O6-alkylguanine-DNA alkyltransferase, AGT) (Homo sapiens)”, the pKa (in general, the pH at which an ionisable group is half protonated) is 4.8.
